Assay results as given in US20160311883A1 (Eli Lilly, published 2016).
Square brackets hold non-standard residues; d marks the D form. Ends that are not written are not given here. Aib = CC(C)(N)C(=O)O

Target: human glucagon receptor (hGR) (human, UniProt P47871 26-477)
Assay: cell-based or functional assay

human glucagon receptor (hGR), sequence (P47871 26-477): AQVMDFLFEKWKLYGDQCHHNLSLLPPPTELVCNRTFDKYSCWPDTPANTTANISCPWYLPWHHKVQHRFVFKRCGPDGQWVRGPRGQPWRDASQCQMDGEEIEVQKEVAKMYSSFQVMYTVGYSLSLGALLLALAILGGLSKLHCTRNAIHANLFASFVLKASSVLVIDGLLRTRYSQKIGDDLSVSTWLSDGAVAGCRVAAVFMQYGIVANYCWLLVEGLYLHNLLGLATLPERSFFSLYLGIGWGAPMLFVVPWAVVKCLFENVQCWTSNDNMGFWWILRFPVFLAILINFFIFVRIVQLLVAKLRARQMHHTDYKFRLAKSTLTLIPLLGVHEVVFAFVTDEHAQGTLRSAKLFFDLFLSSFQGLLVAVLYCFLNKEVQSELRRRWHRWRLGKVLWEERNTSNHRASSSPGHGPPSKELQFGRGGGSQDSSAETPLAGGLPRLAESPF

B1: compound of SEQ ID NO: 2 (peptide)
peptide: YSHGTFTSDVSKYLD[Aib]KKAAEFVAWLLEE-OH
modifications: N-terminus assumed
SMILES: CC(C)C[C@H](NC(=O)[C@H](Cc1c[nH]c2ccccc12)NC(=O)[C@H](C)NC(=O)[C@@H](NC(=O)[C@H](Cc1ccccc1)NC(=O)[C@H](CCC(=O)O)NC(=O)[C@H](C)NC(=O)[C@H](C)NC(=O)[C@H](CCCCN)NC(=O)[C@H](CCCCN)NC(=O)C(C)(C)NC(=O)[C@H](CC(=O)O)NC(=O)[C@H](CC(C)C)NC(=O)[C@H](Cc1ccc(O)cc1)NC(=O)[C@H](CCCCN)NC(=O)[C@H](CO)NC(=O)[C@@H](NC(=O)[C@H](CC(=O)O)NC(=O)[C@H](CO)NC(=O)[C@@H](NC(=O)[C@H](Cc1ccccc1)NC(=O)[C@@H](NC(=O)CNC(=O)[C@H](Cc1c[nH]cn1)NC(=O)[C@H](CO)NC(=O)[C@@H](N)Cc1ccc(O)cc1)[C@@H](C)O)[C@@H](C)O)C(C)C)C(C)C)C(=O)N[C@@H](CC(C)C)C(=O)N[C@@H](CCC(=O)O)C(=O)N[C@@H](CCC(=O)O)C(=O)O
hGR stimulated cAMP functional assay, relative EC50: 0.0658 ηM
